Assay [1] concerns the target T1, purified human CD45 ectodomain (human CD45RABC antigen) (human, UniProt P08575 26-577).
T1 construct: also called hCD45
T1 sequence: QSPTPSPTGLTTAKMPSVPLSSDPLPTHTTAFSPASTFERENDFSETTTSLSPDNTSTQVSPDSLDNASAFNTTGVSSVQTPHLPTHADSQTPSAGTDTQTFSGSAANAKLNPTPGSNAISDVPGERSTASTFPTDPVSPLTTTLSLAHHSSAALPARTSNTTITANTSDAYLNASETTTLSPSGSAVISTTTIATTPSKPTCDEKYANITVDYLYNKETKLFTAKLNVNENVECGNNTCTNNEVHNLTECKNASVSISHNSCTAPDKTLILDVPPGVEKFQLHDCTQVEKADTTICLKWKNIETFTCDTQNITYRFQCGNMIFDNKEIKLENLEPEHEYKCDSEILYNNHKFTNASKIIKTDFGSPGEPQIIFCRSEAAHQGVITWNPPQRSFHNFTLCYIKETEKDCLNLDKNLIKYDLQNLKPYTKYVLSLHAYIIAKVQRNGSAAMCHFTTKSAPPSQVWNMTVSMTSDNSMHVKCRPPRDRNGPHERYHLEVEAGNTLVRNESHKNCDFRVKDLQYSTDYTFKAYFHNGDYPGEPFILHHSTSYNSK
The assay is described as follows: BLI (Octet Red96), IgG on anti-human Fc sensor, 50 nM CD45 ectodomain, 1:1 fit.

Assay [2] deals with T1, purified human CD45 ectodomain (human …). Kind of assay: BLI (Octet Red96), antibody on anti-human Fc sensor, 100 nM human CD45 ectodomain, 1:1 fit.
The target in assay [3] is T2, cynomolgus CD45 on live cells (primary cynomolgus PBMCs) (cynomolgus monkey).
T2 construct: Endogenous CD45 on PBMCs; also called cyno CD45; Cyno PBMC
T2 chain: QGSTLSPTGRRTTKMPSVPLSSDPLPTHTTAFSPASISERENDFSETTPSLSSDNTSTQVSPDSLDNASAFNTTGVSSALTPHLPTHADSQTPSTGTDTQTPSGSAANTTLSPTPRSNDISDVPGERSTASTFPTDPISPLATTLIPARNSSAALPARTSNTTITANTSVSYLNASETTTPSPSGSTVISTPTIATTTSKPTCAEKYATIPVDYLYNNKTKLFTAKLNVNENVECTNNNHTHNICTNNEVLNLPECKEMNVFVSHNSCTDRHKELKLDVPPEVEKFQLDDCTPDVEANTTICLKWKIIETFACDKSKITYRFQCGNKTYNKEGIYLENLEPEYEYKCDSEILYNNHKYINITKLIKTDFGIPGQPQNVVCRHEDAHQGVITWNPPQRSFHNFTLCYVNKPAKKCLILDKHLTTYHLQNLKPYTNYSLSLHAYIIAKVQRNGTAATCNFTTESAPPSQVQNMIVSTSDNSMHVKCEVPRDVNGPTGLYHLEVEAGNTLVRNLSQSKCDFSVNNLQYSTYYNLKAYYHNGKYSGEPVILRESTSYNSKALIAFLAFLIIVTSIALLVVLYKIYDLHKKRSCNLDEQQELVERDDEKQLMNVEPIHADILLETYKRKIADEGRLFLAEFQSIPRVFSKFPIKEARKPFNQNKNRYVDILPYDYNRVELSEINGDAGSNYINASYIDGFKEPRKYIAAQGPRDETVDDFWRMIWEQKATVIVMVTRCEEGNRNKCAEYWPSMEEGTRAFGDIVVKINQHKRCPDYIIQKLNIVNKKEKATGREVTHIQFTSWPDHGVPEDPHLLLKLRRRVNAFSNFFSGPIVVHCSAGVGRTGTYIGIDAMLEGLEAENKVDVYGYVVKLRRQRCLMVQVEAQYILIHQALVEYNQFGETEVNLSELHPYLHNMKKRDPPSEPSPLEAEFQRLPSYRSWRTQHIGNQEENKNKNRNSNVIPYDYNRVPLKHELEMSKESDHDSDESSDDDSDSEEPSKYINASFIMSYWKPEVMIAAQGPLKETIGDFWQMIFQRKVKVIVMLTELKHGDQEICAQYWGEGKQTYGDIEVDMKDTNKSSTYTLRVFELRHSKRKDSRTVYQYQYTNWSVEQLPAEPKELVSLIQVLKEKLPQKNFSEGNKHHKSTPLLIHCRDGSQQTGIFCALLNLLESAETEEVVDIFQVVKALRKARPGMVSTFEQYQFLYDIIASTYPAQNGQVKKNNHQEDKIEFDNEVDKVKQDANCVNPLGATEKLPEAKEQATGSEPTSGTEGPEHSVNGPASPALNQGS
The assay is described as follows: flow cytometry on cynomolgus PBMCs, overnight 37 C, AF488 anti-human IgG. For orientation: Flow cytometry measures light scatter and fluorescence of single cells or particles in a stream.

Assay [4] addresses T2, cynomolgus CD45 on live cells (primary …). Kind of assay: flow cytometry on PBMCs; cyno EC50 against human EC50.
The target of assay [5] is T3, human CD45 on live cells (REH-1 cells, primary human PBMCs) (human, UniProt P08575 26-1306).
T3 construct: Endogenous CD45
T3 sequence: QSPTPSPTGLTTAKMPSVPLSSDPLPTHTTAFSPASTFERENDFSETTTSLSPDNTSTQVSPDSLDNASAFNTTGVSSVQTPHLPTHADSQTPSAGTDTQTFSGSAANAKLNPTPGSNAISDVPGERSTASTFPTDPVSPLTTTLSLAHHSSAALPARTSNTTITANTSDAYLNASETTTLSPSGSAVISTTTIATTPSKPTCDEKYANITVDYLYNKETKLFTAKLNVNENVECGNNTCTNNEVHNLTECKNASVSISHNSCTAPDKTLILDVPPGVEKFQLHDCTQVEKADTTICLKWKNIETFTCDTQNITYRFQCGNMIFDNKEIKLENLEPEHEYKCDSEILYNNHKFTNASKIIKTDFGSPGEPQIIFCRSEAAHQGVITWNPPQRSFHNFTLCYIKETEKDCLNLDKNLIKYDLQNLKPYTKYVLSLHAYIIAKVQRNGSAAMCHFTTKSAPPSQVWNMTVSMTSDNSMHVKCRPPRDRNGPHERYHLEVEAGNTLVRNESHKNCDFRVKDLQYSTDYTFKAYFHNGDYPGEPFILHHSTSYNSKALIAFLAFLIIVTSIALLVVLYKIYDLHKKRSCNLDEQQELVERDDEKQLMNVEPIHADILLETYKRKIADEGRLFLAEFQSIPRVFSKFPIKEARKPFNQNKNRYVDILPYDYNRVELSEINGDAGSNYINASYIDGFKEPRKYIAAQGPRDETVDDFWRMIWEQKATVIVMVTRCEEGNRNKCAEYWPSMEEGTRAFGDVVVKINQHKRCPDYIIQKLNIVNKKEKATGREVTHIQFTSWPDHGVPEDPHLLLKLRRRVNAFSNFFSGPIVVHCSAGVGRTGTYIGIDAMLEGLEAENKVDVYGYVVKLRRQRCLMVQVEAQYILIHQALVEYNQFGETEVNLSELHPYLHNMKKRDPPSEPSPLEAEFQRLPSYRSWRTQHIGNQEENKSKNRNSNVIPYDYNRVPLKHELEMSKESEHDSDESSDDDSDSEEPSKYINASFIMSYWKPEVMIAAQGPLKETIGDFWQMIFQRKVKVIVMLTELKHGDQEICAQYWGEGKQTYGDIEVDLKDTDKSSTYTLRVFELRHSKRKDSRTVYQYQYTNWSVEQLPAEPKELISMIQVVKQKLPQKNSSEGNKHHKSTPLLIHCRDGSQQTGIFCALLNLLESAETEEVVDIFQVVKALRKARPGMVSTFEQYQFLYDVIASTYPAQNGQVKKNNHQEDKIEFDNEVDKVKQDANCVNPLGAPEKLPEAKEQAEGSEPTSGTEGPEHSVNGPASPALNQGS
Kind of assay: flow cytometry on human PBMCs, overnight 37 C, AF488 anti-human IgG.

The target of assay [6] is T3, human CD45 on live cells (REH-1 cells, …). The description is as above. The source holds these as a separate data set.
Assay [7] deals with T2, cynomolgus CD45 on live cells (primary …). Kind of assay: flow cytometry on cynomolgus PBMCs, overnight 37 C, AF488 anti-human IgG.
Assay [8] shares this target. Kind of assay: flow cytometry on PBMCs; cyno EC50 against human EC50.

This note sets out measurements from patent US20220267441A1 (VOR BIOPHARMA, published 2022).

Like-named read-outs stand apart in the source and are kept apart here.

B1: Antibody 4 (Ab4) (antibody, V domains shown)
VH: EVQLVESGGGLVQPGGSLRLSCAASGFTFEAYSMNWVRQAPGKGLEWVSYISLSGATIHYADSVKGRFTISRDNAKNSLYLQMNSLRAEDTAVYYCARGGQYYYTSSDYGEVAFDIWGQGTMVTVSS
VL: DIVMTQSPLSLPVTPGEPASISCRSSQSLVSNGYNYLDWYLQKPGQSPQLLIYFGSSRASGVPDRFSGSGSGTDFTLKISRVEAEDVGVYYCMQRRRTPWSFGGGTKVEIK
Turning to B1, in assay [1], the Kd was 13.9 pM, the koff is 3.28e-06 s⁻¹ and the on-rate (kon) came to 236000 M⁻¹ s⁻¹.

B2: Antibody 3 (Ab3) (antibody, V domains shown)
VH: QVQLVESGGGLVKPGGSLRLSCAASGFTFGGYSMNWVRQAPGKGLEWVSYISISGATITYADSVKGRFTISRDNAKNSLYLQMNSLRAEDTAVYYCARGGQYYYDSSDYGEVAFDIWGQGTMVTVSS
VL: DIVMTQSPLSLPVTPGEPASISCRSSQSLVSNGYNYLDWYLQKPGQSPQLLIYFGSSRASGVPDRFSGSGSGTDFTLKISRVEAEDVGVYYCMQRRRTPPFTFGGGTKVEIK
In assay [1], B2 yielded a dissociation constant (Kd) of 866 pM, a koff of 0.000225 s⁻¹ and a kon of 260000 M⁻¹ s⁻¹.

B3: Antibody 6 (Ab6) (antibody, V domains shown)
VH: EVQLVESGGGLVQPGGSLRLSCAASGFTFEAYSMNWVRQAPGKGLEWVSYISLSGATIHYADSVKGRFTISRDNAKNSLYLQMNSLRAEDTAVYYCARGGQYYYTSSDYGEVAFDIWGQGTLVTVSS
VL: DIVLTQSPLSLPVTPGEPASISCRSSQSLVSSGYNYLDWYLQKPGQSPQLLIYFGSSRASGVPDRFSGSGSGTDFTLKISRVEAEDVGVYYCMQRRRTPWSFGGGTKVEIK
Turning to B3, in assay [1], the dissociation constant Kd worked out at 71.6 pM, the koff is 1.73e-05 s⁻¹ and the association rate constant (kon) was 242000 M⁻¹ s⁻¹.

B4: Antibody 7 (Ab7) (antibody, V domains shown)
VH: QVQLVESGGGLVKPGGSLRLSCAASGFTFGGYSMNWVRQAPGKGLEWVSYISISGATITYADSVKGRFTISRDNAKNSLYLQMNSLRAEDTAVYYCARGGQYYYDSSDYGEVAFDIWGQGTMVTVSS
VL: DIVMTQSPLSLPVTPGEPASISCRSSQSLVSSGYNYLDWYLQKPGQSPQLLIYFGSSRASGVPDRFSGSGSGTDFTLKISRVEAEDVGVYYCMQRRRTPPFTFGGGTKVEIK
notes: Human IgG: Ab3 with the Asn to Ser substitution in CDR-L1
Regarding B4, in assay [1], the Kd is 2330 pM, the koff worked out at 0.000615 s⁻¹ and the kon is 264000 M⁻¹ s⁻¹.

B5: Antibody 2 (Ab2) (antibody, V domains shown)
VH: EVQLVESGGGLVQPGGSLRLSCAASGFTFEAYSMNWVRQAPGKGLEWVSYISLSGATIHYADSVKGRFTISRDNAKNSLYLQMNSLRAEDTAVYYCARGGQYYYDSSDYGEVAFDIWGQGTMVTVSS
VL: DIVMTQSPLSLPVTPGEPASISCRSSQSLVSNGYNYLDWYLQKPGQSPQLLIYFGSSRASGVPDRFSGSGSGTDFTLKISRVEAEDVGVYYCMQRRRTPWSFGGGTKVEIK
Regarding B5, in assay [1], binding was characterised by a dissociation constant (Kd) of 115 pM, the dissociation rate constant (koff) was 2.8e-05 s⁻¹ and the kon is 245000 M⁻¹ s⁻¹.

B6: Antibody 5 (Ab5) (antibody, V domains shown)
VH: EVQLVESGGGLVQPGGSLRLSCAASGFTFEAYSMNWVRQAPGKGLEWVSYISLSGATIHYADSVKGRFTISRDNAKNSLYLQMNSLRAEDTAVYYCARGGQYYYTSSDYGEVAFDIWGQGTMVTVSS
VL: DIVMTQSPLSLPVTPGEPASISCRSSQSLVSSGYNYLDWYLQKPGQSPQLLIYFGSSRASGVPDRFSGSGSGTDFTLKISRVEAEDVGVYYCMQRRRTPWSFGGGTKVEIK
notes: Human IgG: Ab4 with the Asn to Ser substitution in CDR-L1
Turning to B6, in assay [1], the dissociation constant (Kd) amounted to 144 pM, the off-rate constant (koff) stood at 3.36e-05 s⁻¹ and the on-rate (kon) came out at 233000 M⁻¹ s⁻¹.

B7: Antibody A (AbA) (antibody, V domains shown)
VH: EVQLLESGGGLVQPGGSLRLSCAASGFTFNNYWMTWVRQAPGKGLEWVSSISSSGGSIYYPDRVKGRFTISRDNSKNTLYLQMNSLRAEDTAVYYCARDERWAGAMDAWGQGTTVTVSS
VL: DIQMTQSPSSLSASVGDRVTITCKASQNINKNLDWYQQKPGKAPKLLIYETNNLQTGVPSRFSGSGSGTDFTLTISSLQPEDFATYYCYQHNSRFTFGQGTKLEIK
notes: also called humanized clone AbA
As for B7, the affinity in assay [2], expressed as Kd, was 3600 pM. Further, the koff in assay [2] is 0.000181 s⁻¹. The same molecule came in with an on-rate (kon) in assay [2] of 50300 M⁻¹ s⁻¹. The 50% effective concentration (EC50) was 1370 pM in assay [3], 780 pM in assay [5], 580 pM in assay [6] and 1250 pM in assay [7]. Besides, the “Fold Cyno vs Human (EC50)” value in assay [4] is 2.2 fold. Moreover, the “Fold Cyno v/s Human (EC50)” value in assay [8] is 1.8 fold.

One may read the Kd as a measure of binding affinity in units of concentration. Higher therefore signals weaker binding. The term koff denotes a measure of how fast the partners let go of each other. A lower koff goes with slow dissociation. A word on the kon: it is the second-order rate constant of association. Read a low kon as slower complex formation. As a reminder, the EC50 is the concentration at which the effect is half-maximal.
